According to US20180057553A1, “CONJUGATE AND USE THEREOF” (The University of Tokyo, priority 2015, published 2018):
Where a chain is given by its changes, count along the chain named. Names may count otherwise. One block for each molecule: values may come before it.

How the values were obtained:
[1] = Binding of intelectin to beads having a diol group (SDS-PAGE, Examples 1 and 10); details: 18 hours at 25 deg C; eluted with 15% glycerol; compared with polystyrene or hydroxy beads
Description: Beads having a diol group on the surface and beads not having a diol group on the surface were prepared. Beads obtained by conjugating 3-amino-1-propanediol bound to the surface of polystyrene beads via an amino group (diol beads), and beads obtained by alkaline hydrolyzing the epoxy group of Sepharose beads with 1,4-bis(2,3-epoxypropyl)butane introduced (epoxy-activated Sepharose 6B (GE Healthcare Biosciences)) (diol Sepharose beads) were used as the beads having a diol group on the surface. Polystyrene beads and beads obtained by conjugating 3-amino-1-propanol to polystyrene beads (hydroxy beads) were used as the beads not having a diol group on the surface.
Each kind of beads were added to 500 microliters of a medium containing intelectin or a medium not containing intelectin, and were stirred for 18 hours at 25 deg C. Recombinant human intelectin-1 was used as intelectin. Subsequently, the beads were collected by centrifugation and washed once with buffer, and the samples was eluted with buffer containing 15% glycerol. Samples were separated by SDS polyacrylamide gel electrophoresis (SDS-PAGE), and proteins were stained using Coomassie Brilliant Blue.
Beads having a diol group on the surface and beads not having a diol group on the surface were prepared. Diol beads, diol Sepharose brads, and hydroxy beads, that were used in Example 1, were used as the beads.
First, beads were added to 5 mL of a medium containing recombinant mouse intelectin-1 or 1 mL of a medium containing C31, 48S mutant of human intelectin-1, and the samples were stirred for 18 hours at 25 deg C.
Subsequently, the beads were collected by centrifugation and washed once with buffer, and the samples were eluted with buffer containing 15% glycerol. The samples were then separated by SDS-polyacrylamide gel electrophoresis (SDS-PAGE), and proteins were stained with Coomassie Brilliant Blue.

[2] = Adsorption of intelectin in human serum to diol modified silica gel column (Example 14); format: binding
Description: 40 microliters of 50% fresh human serum diluted with 0.1% Tween 20-150 mM NaCl—50 mM phosphate buffer (pH 7.3) added with or not added with 10 mM EDTA was added to a gel filtration chromatography column (TSKgel G3000 SWXL Tosoh Corporation) utilizing diol-modified silica gel as the carrier, and gel filtration was performed using 0.1% Tween 20—150 mM NaCl—50 mM phosphate buffer (pH 7.3) as solvent. Subsequently, the intelectin concentration in the elution fraction was measured using ELISA.

- binding of serum intelectin to the column ([2]; human serum added with 10 mM EDTA): did not bind to the column
- binding of serum intelectin to the column ([2]; human serum not added with EDTA): adsorbed to the column
B1: intelectin: a kind of lectin; amino acid sequence of human intelectin-1 is SEQ ID NO: 1; wild type forms a trimer (protein, listed as Homo sapiens)
chain: MNQLSFLLFLIATTRGWSTDEANTYFKEWTCSSSPSLPRSCKEIKDECPSAFDGLYFLRTENGVIYQTFCDMTSGGGGWTLVASVHENDMRGKCTVGDRWSSQQGSKADYPEGDGNWANYNTFGSAEAATSDDYKNPGYYDIQAKDLGIWHVPNKSPMQHWRNSSLLRYRTDTGFLQTLGHNLFGIYQKYPVKYGEGKCWTDNGPVIPVVYDFGDAQKTASYYSPYGQREFTAGFVQFRVFNNERAANALCAGMRVTGCNTEHHCIGGGGYFPEASPQQCGDFSGFDWSGYGTHVGYSSSREITEAAVLLFYR
modifications: human intelectin-1
notes: a kind of lectin; wild type forms a trimer
- binding to beads having a diol group (SDS-PAGE) [1]: selectively bind to diol beads and diol Sepharose beads

B2: C31, 48S mutant of human intelectin-1: cysteine residues at position 31 and 48 substituted with serine; produced as a monomer; SEQ ID NO: 9 (protein, listed as Homo sapiens)
chain: B1 chain with C31S, C48S
modifications: human intelectin-1 C31S, C48S variant
- binding to beads having a diol group (SDS-PAGE) [1]: specifically bind to diol beads and diol Sepharose beads

B3: mouse intelectin-1: produced as a monomer; 51 amino acid residues different from human intelectin-1; SEQ ID NO: 7 (protein, listed as Mus musculus)
chain: MTQLGFLLFIMVATRGCSAAEENLDTNRWGNSFFSSLPRSCKEIKQEHTKAQDGLYFLRTKNGVIYQTFCDMTTAGGGWTLVASVHENNMRGKCTVGDRWSSQQGNRADYPEGDGNWANYNTFGSAEAATSDDYKNPGYFDIQAENLGIWHVPNKSPLHNWRKSSLLRYRTFTGFLQHLGHNLFGLYKKYPVKYGEGKCWTDNGPALPVVYDFGDARKTASYYSPSGQREFTAGYVQFRVFNNERAASALCAGVRVTGCNTEHHCIGGGGFFPEGNPVQCGDFASFDWDGYGTHNGYSSSRKITEAAVLLFYR
modifications: mouse intelectin-1
- binding to beads having a diol group (SDS-PAGE) [1]: specifically bind to diol beads and diol Sepharose beads
